Test results as given in publication PMC3580015 (Archives of biochemistry and biophysics, 2013).
“And” between values parts separate entries of the source, which are not always exact repeats. Equal values may be shown once.

Biological target: the molecule itself
Assay: native gel or EMSA

B1: full length rat phenylalanine hydroxylase (PAH) (enzyme, UniProt P04176 1-453, looked up)
chain: MAAVVLENGVLSRKLSDFGQETSYIEDNSNQNGAISLIFSLKEEVGALAKVLRLFEENDINLTHIESRPSRLNKDEYEFFTYLDKRTKPVLGSIIKSLRNDIGATVHELSRDKEKNTVPWFPRTIQELDRFANQILSYGAELDADHPGFKDPVYRARRKQFADIAYNYRHGQPIPRVEYTEEEKQTWGTVFRTLKALYKTHACYEHNHIFPLLEKYCGFREDNIPQLEDVSQFLQTCTGFRLRPVAGLLSSRDFLGGLAFRVFHCTQYIRHGSKPMYTPEPDICHELLGHVPLFSDRSFAQFSQEIGLASLGAPDEYIEKLATIYWFTVEFGLCKEGDSIKAYGAGLLSSFGELQYCLSDKPKLLPLELEKTACQEYSVTEFQPLYYVAESFSDAKEKVRTFAATIPRPFSVRYDPYTQRVEVLDNTQQLKILADSINSEVGILCNALQKIKS
In the case of B1, the “stoichiometry N” value is reported as 4 and 2.

B2: full length human phenylalanine hydroxylase (PAH) (enzyme, UniProt P00439 1-452, looked up)
chain: MSTAVLENPGLGRKLSDFGQETSYIEDNCNQNGAISLIFSLKEEVGALAKVLRLFEENDVNLTHIESRPSRLKKDEYEFFTHLDKRSLPALTNIIKILRHDIGATVHELSRDKKKDTVPWFPRTIQELDRFANQILSYGAELDADHPGFKDPVYRARRKQFADIAYNYRHGQPIPRVEYMEEEKKTWGTVFKTLKSLYKTHACYEYNHIFPLLEKYCGFHEDNIPQLEDVSQFLQTCTGFRLRPVAGLLSSRDFLGGLAFRVFHCTQYIRHGSKPMYTPEPDICHELLGHVPLFSDRSFAQFSQEIGLASLGAPDEYIEKLATIYWFTVEFGLCKQGDSIKAYGAGLLSSFGELQYCLSEKPKLLPLELEKTAIQNYTVTEFQPLYYVAESFNDAKEKVRNFAATIPRPFSVRYDPYTQRIEVLDNTQQLKILADSINSEIGILCSALQKIK
B2 was tested, and the “stoichiometry N” value was 4 and 2.
